Reference: patent US20230287080A1 (published 2023)

T1: NY-ESO-1 peptide on HLA-A*02:01 (human)
T1 peptide: SLLMWITQC

B1: NY7JSY (TCR, V domains shown)
Valpha: QKEVEQNSGPLSVPEGAIASLNCTYSDRGSQSFFWYRQYSGKSPELIMFIYSNGDKEDGRFTAQLNKASQYVSLLIRDSQPSDSATYLCAVMRAGGFKTIFGAGTRLFVKA
Vbeta: DSGVTQTPKHLITATGQRVTLRCSPRSGDLSVYWYQQSLDQGLQFLIQYYNGEERAKGNILERFSAQQFPDLHSELNLSSLELGDSALYFCASSVVDGEQYFGPGTRLTVT
B2: NY7 variant, Table A TCR ID 5 (TCR, V domains shown)
Valpha: QKEVEQNSGPLSVPEGAIASLNCTYSDRWSQSFFWYRQYSGKSPELIMFIYSNGDKEDGRFTAQLNKASQYVSLLIRDSQPSDSATYLCAVMRAGGFKTIFGAGTRLFVKA
Vbeta: DSGVTQTPKHLITATGQRVTLRCSPRSGDLSVYWYQQSLDQGLQFLIQYYNGEERAKGNILERFSAQQFPDLHSELNLSSLELGDSALYFCASSVVDGEQYFGPGTRLTVT

Key:
[1] = target: T1, NY-ESO-1 peptide on HLA-A*02:01; experiment: multimer staining
[2] = target: T1, NY-ESO-1 peptide on HLA-A*02:01; experiment: activation reporter or marker
Protocol: NY7 variant TCRs isolated by the work flow above were then functionally tested for potency and specificity. TCRs were expressed in Jurkat cells using a lentivirus vector, and TCR-expressing Jurkat cells were co-cultured with T2 cells and a varying dose of the NY-ESO-1 peptide. Activation was measured by luminescence using an NFAT-Luciferase reporter.

Binder	binding result [1]	binding result [2]
B1	recognises	
B2		recognises
